Source: patent US20260184814A1, “BROADLY NE[…] INFLUENZA NEURAMINIDASE” (priority 2022, published 2026)
Read-outs that look alike come from different tables or passages of the source.

Tests used:
[1] = target: human FcγRIIIa (V158 allele) (human) (UniProt P08637)
[2] = target: human FcγRIIIa (F158 allele) (human) (UniProt P08637)
human FcγRIIIb (human) = human FcγRIIIb (human) (UniProt O75015); assay: MSD [cont'd]
[3] = target: human FcγRIIa (H131 allele) (human) (UniProt P12318); assay: MSD [cont'd]
human FcγRIIa (H131 allele) (human), sequence (P12318 34-218 limits assumed): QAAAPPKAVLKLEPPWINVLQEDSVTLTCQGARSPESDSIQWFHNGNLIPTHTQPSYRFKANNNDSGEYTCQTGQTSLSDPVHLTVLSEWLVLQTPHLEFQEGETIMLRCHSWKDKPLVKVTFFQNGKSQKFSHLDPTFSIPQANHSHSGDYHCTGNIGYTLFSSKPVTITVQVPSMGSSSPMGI

human FcRn (human) [4] = target: human FcRn (human) (UniProt P55899); assay: MSD [cont'd]
human FcRn (human), sequence (P55899 24-297 limits assumed, chain 1 of 2): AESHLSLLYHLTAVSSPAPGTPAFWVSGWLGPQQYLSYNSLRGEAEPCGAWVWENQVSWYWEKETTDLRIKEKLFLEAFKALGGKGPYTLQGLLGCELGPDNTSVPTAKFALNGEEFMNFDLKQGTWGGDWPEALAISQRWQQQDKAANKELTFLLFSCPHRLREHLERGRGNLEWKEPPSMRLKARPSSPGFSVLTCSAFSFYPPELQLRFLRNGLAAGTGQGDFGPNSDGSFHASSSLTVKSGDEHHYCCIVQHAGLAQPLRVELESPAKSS
human FcRn (human), sequence (chain, as listed by the source limits assumed, chain 2 of 2): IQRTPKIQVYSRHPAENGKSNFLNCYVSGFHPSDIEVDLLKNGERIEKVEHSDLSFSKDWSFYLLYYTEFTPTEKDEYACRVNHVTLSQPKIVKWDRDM

human FcγRIIb (human) [5] = target: human FcγRIIb (human) (UniProt P31994); assay: MSD [cont'd]
human FcγRIIb (human), sequence (P31994 43-217 limits assumed): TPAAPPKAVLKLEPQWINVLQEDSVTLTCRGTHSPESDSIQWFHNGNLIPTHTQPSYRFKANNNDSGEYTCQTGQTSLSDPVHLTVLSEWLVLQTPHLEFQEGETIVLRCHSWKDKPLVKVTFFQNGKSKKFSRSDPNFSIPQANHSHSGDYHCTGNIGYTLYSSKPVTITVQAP

[6] = target: human FcγRIIIa (V158 allele) (human) (UniProt P08637); assay: MSD [cont'd]
[7] = target: human FcγRIIIa (F158 allele) (human) (UniProt P08637); assay: MSD [cont'd]
[8] = target: human FcγRIIa (R131 allele) (human) (UniProt P12318); assay: MSD [cont'd]
human FcγRIIa (R131 allele) (human), sequence (P12318 34-218 H167R limits assumed): as the sequence (P12318 34-218 limits assumed) above, with H134R counted along it

[9] = target: human FcγRIIa (H131 allele) (human) (UniProt P12318); assay: MSD
human FcγRIIb (human) [10] = target: human FcγRIIb (human) (UniProt P31994); assay: MSD
[11] = target: human FcγRIIa (R131 allele) (human) (UniProt P12318); assay: MSD
human FcRn (human) [12] = target: human FcRn (human) (UniProt P55899); assay: MSD, pH 6 [cont'd]
human C1q (human) [13] = target: human C1q (human) (UniProt P02745); assay: MSD [cont'd]
human C1q (human), sequence (P02745 23-245 limits assumed, chain 1 of 3): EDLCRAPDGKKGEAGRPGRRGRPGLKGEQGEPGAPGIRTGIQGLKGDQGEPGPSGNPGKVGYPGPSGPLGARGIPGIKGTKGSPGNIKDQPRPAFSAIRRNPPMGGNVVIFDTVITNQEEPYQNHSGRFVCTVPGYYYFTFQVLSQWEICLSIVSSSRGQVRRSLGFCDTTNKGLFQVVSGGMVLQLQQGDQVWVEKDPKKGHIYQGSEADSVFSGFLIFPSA
human C1q (human), sequence (P02746 28-253 limits assumed, chain 2 of 3, further chain): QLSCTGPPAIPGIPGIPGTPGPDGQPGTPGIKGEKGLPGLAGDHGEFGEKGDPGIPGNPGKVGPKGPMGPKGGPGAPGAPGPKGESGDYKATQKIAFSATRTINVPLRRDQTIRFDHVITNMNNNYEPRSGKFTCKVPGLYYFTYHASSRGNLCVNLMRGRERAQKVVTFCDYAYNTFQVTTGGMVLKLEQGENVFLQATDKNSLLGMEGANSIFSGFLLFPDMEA
human C1q (human), sequence (P02747 29-245 limits assumed, chain 3 of 3, further chain): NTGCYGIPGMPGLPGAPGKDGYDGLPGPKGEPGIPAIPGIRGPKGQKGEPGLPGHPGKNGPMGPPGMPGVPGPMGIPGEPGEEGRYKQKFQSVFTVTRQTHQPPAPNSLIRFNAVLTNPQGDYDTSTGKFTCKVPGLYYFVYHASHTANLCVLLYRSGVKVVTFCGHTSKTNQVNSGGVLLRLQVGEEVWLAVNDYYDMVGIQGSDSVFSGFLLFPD

human FcRn (human) [14] = target: human FcRn (human) (UniProt P55899); assay: MSD [cont'd]; remark: listed apart in the source
[15] = target: human FcγRIIIa (V158 allele) (human) (UniProt P08637); assay: MSD [cont'd]; remark: listed apart in the source
human C1q (human) [16] = target: human C1q (human) (UniProt P02745); assay: MSD [cont'd]; remark: listed apart in the source
[17] = target: human FcγRIIIa (F158 allele) (human) (UniProt P08637); assay: MSD [cont'd]; remark: listed apart in the source
[18] = target: human FcγRIIa (H131 allele) (human) (UniProt P12318); assay: MSD [cont'd]; remark: listed apart in the source
human FcγRIIb (human) [19] = target: human FcγRIIb (human) (UniProt P31994); assay: MSD [cont'd]; remark: listed apart in the source
[20] = target: human FcγRIIa (R131 allele) (human) (UniProt P12318); assay: MSD [cont'd]; remark: listed apart in the source
[21] = target: human FcγRIIa (H131 allele) (human) (UniProt P12318)
human FcγRIIb (human) [22] = target: human FcγRIIb (human) (UniProt P31994)
[23] = target: human FcγRIIIa (V158 allele) (human) (UniProt P08637); remark: listed apart in the source
[24] = target: human FcγRIIIa (F158 allele) (human) (UniProt P08637); remark: listed apart in the source

human FcγRIIIa (V158 allele) (human), sequence (P08637 17-208 F176V limits assumed): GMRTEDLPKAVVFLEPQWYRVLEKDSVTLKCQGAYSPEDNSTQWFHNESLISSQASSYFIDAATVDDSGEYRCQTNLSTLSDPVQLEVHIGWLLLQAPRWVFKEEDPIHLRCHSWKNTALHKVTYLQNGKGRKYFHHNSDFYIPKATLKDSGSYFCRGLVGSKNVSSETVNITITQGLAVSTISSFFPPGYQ
human FcγRIIIa (F158 allele) (human), sequence (P08637 17-208 limits assumed): as the sequence (P08637 17-208 F176V limits assumed) above, with V160F counted along it
human FcγRIIIb (human), sequence (O75015 17-200 limits assumed): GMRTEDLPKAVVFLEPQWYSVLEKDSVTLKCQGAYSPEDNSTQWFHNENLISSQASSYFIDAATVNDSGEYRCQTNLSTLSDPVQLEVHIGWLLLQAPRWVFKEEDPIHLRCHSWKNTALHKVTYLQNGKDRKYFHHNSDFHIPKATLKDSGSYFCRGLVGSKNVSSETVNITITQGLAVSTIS

## G236A_S239D_A330L_I332E-afuc (antibody)
[1]
  FcγR reporter signaling, fold to wt-fucose [cont'd]: 5.16 fold
[2]
  FcγR reporter signaling, fold to wt-fucose [cont'd]: 11.5 fold
Human FcγRIIIb (human)
  fold to wt-fucose: 94.3 fold
[3]
  fold to wt-fucose: 3.58 fold
Human FcRn (human) [4]
  fold to wt-fucose: 0.96 fold
Human FcγRIIb (human) [5]
  fold to wt-fucose: 1.21 fold
[6]
  fold to wt-fucose: 75.6 fold
[7]
  fold to wt-fucose: 730 fold
[8]
  fold to wt-fucose: 7.58 fold

## IgG1 antibody with Fc variant Y300L
[9]
  fold-change to WT Fc: 1.86 fold
Human FcγRIIb (human) [10]
  fold-change to WT Fc: 1.18 fold
[11]
  fold-change to WT Fc: 0.822 fold
Human FcRn (human) [12]
  fold-change to WT Fc: 1.06 fold
[3]
  fold-change vs wt: 1.86 fold
Human FcγRIIb (human) [5]
  fold-change vs wt: 1.18 fold
[6]
  fold-change to WT Fc: 1.62 fold
Human C1q (human) [13]
  fold-change to WT Fc: 2.16 fold
[7]
  fold-change to WT Fc: 1.25 fold
[8]
  fold-change vs wt: 0.82 fold
Human FcRn (human) [14]
  fold-change vs wt: 1.06 fold
[15]
  fold-change vs wt: 1.62 fold
Human C1q (human) [16]
  fold-change vs wt: 2.14 fold
[17]
  fold-change vs wt: 1.24 fold

## L309T_P238D_P396L_T366A-afuc (antibody)
[1]
  FcγR reporter signaling, fold to wt-fucose [cont'd]: 0.16 fold

## IgG1 antibody with Fc variant E345K_G236S_L235Y_S267E
[18]
  fold-change vs wt: 0.53 fold
Human FcRn (human) [14]
  fold-change vs wt: 0.9 fold
Human FcγRIIb (human) [19]
  fold-change vs wt: 1.71 fold
[15]
  fold-change vs wt: 0.05 fold
Human C1q (human) [16]
  fold-change vs wt: 2.35 fold
[17]
  fold-change vs wt: 0.29 fold
[20]
  fold-change vs wt: 9.22 fold

## A330L_I332E (antibody)
[21]
  FcγR reporter signaling, fold-change vs wt [cont'd]: 0.71 fold
Human FcγRIIb (human) [22]
  FcγR reporter signaling, fold-change vs wt [cont'd]: 0.69 fold
[23]
  FcγR reporter signaling, fold-change vs wt [cont'd]: 4.38 fold
[24]
  FcγR reporter signaling, fold-change vs wt [cont'd]: 11.9 fold
Human FcγRIIIb (human)
  fold-change vs wt: 5.19 fold
[3]
  fold-change vs wt: 0.42 fold
Human FcRn (human) [4]
  fold-change vs wt: 1.12 fold
Human FcγRIIb (human) [5]
  fold-change vs wt: 0.66 fold
[6]
  fold-change vs wt: 3.52 fold
Human C1q (human) [13]
  fold-change vs wt: 0.03 fold
[7]
  fold-change vs wt: 11.9 fold
[8]
  fold-change vs wt: 0.52 fold

## IgG1 antibody with Fc variant G236W
[9]
  fold-change to WT Fc: 1.06 fold
Human FcγRIIb (human) [10]
  fold-change to WT Fc: 0.652 fold
[11]
  fold-change to WT Fc: 0.469 fold
Human FcRn (human) [12]
  fold-change to WT Fc: 1.09 fold
[6]
  fold-change to WT Fc: 0.117 fold
Human C1q (human) [13]
  fold-change to WT Fc: 3.66 fold
[7]
  fold-change to WT Fc: 0.541 fold
[18]
  fold-change vs wt: 1.06 fold
Human FcRn (human) [14]
  fold-change vs wt: 1.09 fold
Human FcγRIIb (human) [19]
  fold-change vs wt: 0.65 fold
[15]
  fold-change vs wt: 0.12 fold
Human C1q (human) [16]
  fold-change vs wt: 3.63 fold
[17]
  fold-change vs wt: 0.54 fold
[20]
  fold-change vs wt: 0.47 fold

## IgG1 antibody with Fc variant E272R_L309T_S219Y_S267E
[18]
  fold-change vs wt: 0.33 fold
Human FcRn (human) [14]
  fold-change vs wt: 0.98 fold
Human FcγRIIb (human) [19]
  fold-change vs wt: 4.77 fold
Human C1q (human) [16]
  fold-change vs wt: 2.53 fold
[17]
  fold-change vs wt: 0.37 fold
[20]
  fold-change vs wt: 10.7 fold
